Key:
[1] = biological target: T1, hLGP2 (Homo sapiens, UniProt Q96C10); assay: malachite green ATPase assay; format: biochemical; details: dsRNA-dependent
T1 construct: gene DHX58; construct not described in main text
T1 sequence (Q96C10 1-678): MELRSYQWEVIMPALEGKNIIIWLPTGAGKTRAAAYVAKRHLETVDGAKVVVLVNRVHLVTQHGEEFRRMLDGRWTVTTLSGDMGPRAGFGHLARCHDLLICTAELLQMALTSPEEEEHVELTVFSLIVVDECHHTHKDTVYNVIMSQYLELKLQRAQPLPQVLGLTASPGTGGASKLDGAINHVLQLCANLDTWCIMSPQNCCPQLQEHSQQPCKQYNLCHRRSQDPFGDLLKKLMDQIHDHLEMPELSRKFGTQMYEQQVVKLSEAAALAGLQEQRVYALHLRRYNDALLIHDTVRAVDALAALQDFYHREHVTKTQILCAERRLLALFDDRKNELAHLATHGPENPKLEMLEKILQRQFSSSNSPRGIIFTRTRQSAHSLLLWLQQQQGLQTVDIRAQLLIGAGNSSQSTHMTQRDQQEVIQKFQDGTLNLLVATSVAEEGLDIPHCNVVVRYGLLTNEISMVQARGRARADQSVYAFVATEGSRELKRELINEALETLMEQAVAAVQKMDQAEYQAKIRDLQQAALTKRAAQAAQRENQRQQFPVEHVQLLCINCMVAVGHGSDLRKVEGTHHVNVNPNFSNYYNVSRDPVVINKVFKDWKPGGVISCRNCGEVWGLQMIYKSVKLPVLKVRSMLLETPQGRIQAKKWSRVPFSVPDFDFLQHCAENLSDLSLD

[2] = biological target: T2, chLGP2 (chicken, UniProt G0YYQ5 1-674); assay: fluorescence anisotropy; same affinity as 5'OH; Fluorescence anisotropy: 5'-FAM 12-mer annealed to unlabeled complement, protein titrated, ex 495 / em 515 nm, fit with Hill coefficient (n=1 for RIG-I); buffer, salt, pH and temperature not in the material; details: protein: recombinant; tags: SUMO fusion; label: 5'-FAM on one strand; blunt
T2 sequence: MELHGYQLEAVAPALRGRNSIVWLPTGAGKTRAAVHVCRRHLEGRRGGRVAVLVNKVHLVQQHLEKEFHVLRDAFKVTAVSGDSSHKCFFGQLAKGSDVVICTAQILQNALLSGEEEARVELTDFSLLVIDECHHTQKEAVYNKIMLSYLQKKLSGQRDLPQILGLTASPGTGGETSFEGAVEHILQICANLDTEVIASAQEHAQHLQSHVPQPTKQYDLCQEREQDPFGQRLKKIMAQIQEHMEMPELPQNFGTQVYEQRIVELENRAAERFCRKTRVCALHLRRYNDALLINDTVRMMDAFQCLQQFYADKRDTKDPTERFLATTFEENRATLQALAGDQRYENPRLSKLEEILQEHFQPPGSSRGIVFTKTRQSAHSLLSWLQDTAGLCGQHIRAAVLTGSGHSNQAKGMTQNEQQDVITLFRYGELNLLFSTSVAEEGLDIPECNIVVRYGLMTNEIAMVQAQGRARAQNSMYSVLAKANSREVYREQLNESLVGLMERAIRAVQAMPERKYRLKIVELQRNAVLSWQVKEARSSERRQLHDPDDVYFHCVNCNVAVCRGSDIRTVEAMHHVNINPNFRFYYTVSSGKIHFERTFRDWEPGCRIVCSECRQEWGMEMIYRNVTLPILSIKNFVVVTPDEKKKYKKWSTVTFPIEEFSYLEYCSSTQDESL

[3] = biological target: T3, hRIG-I (human, UniProt O95786 1-925); assay: fluorescence anisotropy; ADP:AlF4; Fluorescence anisotropy: 5'-FAM 12-mer annealed to unlabeled complement, protein titrated, ex 495 / em 515 nm, fit with Hill coefficient (n=1 for RIG-I); buffer, salt, pH and temperature not in the material; details: protein: recombinant; label: 5'-FAM on one strand; blunt
T3 sequence: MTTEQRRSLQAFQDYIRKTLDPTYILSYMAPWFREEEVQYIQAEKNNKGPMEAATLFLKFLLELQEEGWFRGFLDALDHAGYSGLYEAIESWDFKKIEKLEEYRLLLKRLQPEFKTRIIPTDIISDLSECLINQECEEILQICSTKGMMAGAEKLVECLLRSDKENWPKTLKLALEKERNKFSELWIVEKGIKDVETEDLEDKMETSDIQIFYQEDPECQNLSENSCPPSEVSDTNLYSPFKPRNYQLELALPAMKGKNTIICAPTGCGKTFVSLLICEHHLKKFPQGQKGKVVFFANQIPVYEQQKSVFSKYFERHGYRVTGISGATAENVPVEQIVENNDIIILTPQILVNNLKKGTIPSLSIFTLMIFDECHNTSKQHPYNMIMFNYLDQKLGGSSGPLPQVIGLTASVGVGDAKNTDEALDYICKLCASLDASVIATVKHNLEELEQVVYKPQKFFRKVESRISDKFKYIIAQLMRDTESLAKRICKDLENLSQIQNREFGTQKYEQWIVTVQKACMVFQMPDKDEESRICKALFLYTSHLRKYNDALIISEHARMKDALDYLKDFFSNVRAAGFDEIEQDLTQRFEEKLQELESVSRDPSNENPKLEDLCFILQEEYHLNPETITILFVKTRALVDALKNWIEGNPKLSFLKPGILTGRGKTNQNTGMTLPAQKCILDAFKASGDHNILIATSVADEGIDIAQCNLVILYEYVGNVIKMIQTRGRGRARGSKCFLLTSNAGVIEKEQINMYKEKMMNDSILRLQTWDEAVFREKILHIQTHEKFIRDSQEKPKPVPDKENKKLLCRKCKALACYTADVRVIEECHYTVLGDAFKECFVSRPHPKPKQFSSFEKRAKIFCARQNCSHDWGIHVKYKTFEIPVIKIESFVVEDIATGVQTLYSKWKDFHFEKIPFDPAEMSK

[4] = biological target: T2, chLGP2; assay: fluorescence anisotropy; affinity independent of bound nucleotide; Fluorescence anisotropy: 5'-FAM 12-mer annealed to unlabeled complement, protein titrated, ex 495 / em 515 nm, fit with Hill coefficient (n=1 for RIG-I); buffer, salt, pH and temperature not in the material; details: protein: recombinant; tags: SUMO fusion; label: 5'-FAM on one strand; blunt
[5] = biological target: T2, chLGP2; assay: crystal structure; ADP:AlF4, Mg2+; Fluorescence anisotropy: 5'-FAM 12-mer annealed to unlabeled complement, protein titrated, ex 495 / em 515 nm, fit with Hill coefficient (n=1 for RIG-I); buffer, salt, pH and temperature not in the material; details: protein: recombinant, tags: SUMO fusion
[6] = biological target: T2, chLGP2; assay: crystal structure; no nucleotide; Fluorescence anisotropy: 5'-FAM 12-mer annealed to unlabeled complement, protein titrated, ex 495 / em 515 nm, fit with Hill coefficient (n=1 for RIG-I); buffer, salt, pH and temperature not in the material; details: protein: recombinant; tags: SUMO fusion; 2 copies of self-complementary strand
[7] = biological target: T2, chLGP2; assay: fluorescence anisotropy; Fluorescence anisotropy: 5'-FAM 12-mer annealed to unlabeled complement, protein titrated, ex 495 / em 515 nm, fit with Hill coefficient (n=1 for RIG-I); buffer, salt, pH and temperature not in the material; details: protein: recombinant; tags: SUMO fusion; label: 5'-FAM on one strand; 5' overhang
[8] = blunt, 2 copies of self-complementary strand

For Nc1ncnc2c1ncn2[C@@H]1O[C@H](COP(=O)(O)OP(=O)(O)OP(=O)(O)O)[C@@H](O)[C@H]1O [ATP], the “malachite green ATPase assay” value [1] was “both chLGP2 and hLGP2 ATPase activity is strictly dsRNA dependent”.

B1: 5'ppp 12-mer blunt dsRNA (anisotropy) (dsRNA)
RNA 1: GGGCUCCACAUG
RNA 2: CAUGUGGAGCCC
modifications: 5' triphosphate
For B1, the binding result [2] was “binds” and the Kd [3] was about 1 nM.

B2: 5'OH 12-mer blunt dsRNA (anisotropy) (dsRNA)
RNA 1: GGGCUCCACAUG
RNA 2: CAUGUGGAGCCC
B2: binds [4].

B3: 5'ppp 10-mer palindromic dsRNA (dsRNA)
RNA 1: GGUACGUACC
RNA 2: GGUACGUACC
modifications: 5' triphosphate
B3: binds [5, 8].

B4: 5'p 12-mer palindromic dsRNA (dsRNA)
RNA 1: GGUAGCGCUACC
RNA 2: GGUAGCGCUACC
modifications: 5' monophosphate
B4: binds [6].

B5: 5'p 10-mer palindromic dsRNA (dsRNA)
RNA 1: GGUACGUACC
RNA 2: GGUACGUACC
modifications: 5' monophosphate
B5: binds [5, 8].

B6: 5' overhang dsRNA (anisotropy) (dsRNA)
RNA 1: AACCGGUCACGC
RNA 2: AAGCGUGACCGG
For B6, the binding signal [7] was ~2 fold lower affinity than blunt end.

GGAGCGUGCCGUACGGCACGCUCCGG (structured_RNA, 5' triphosphate) [5'ppp 26-mer hairpin with 3' GG overhang]: binds ([5]; hairpin, 3' overhang 2 nt (GG)).

— publication PMC4885022, “Structural Analysis of dsRNA Binding to Anti-viral Pattern Recognition Receptors LGP2 and MDA5” (Molecular Cell, 2016)
